In patent US20110287023A1:

Biological target: HMG1 purified from calf (bovine) thymus (bovine) (UniProt P10103)
Assay: cell-based or functional assay

HMG1 purified from calf (bovine) thymus (bovine), sequence (P10103 2-215 limits assumed): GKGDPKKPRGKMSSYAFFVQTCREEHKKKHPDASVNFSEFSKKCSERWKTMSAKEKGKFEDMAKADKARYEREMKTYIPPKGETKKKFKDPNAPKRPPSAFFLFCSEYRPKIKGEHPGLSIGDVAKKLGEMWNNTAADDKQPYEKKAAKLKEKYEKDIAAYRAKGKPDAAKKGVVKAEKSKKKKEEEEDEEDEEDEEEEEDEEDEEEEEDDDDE

- IFN-α release (HMGB/CpG-A mediated enhanced TLR9 signaling): > 95%
Substance: RAGE-Fc fusion protein (species not stated)
